PMC11417369, “DNA sequence and chromatin differentiate sequence-specific transcription factor binding in the human malaria parasite Plasmodium falciparum”
Numbering of substitutions follows the chain as printed.

T1: SIP2 D1 (Plasmodium falciparum, UniProt C6KSN9 177-235)
T1 sequence: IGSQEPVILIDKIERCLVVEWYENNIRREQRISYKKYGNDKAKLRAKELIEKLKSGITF

B1: GTGCAC_negctrl_site404 (dsDNA)
DNA 1: AAAAAAAAAAAGAAGGAAACATTTGACCAAAAATAT
DNA 2: ATATTTTTGGTCAAATGTTTCCTTCTTTTTTTTTTT
B2: GTGCAC_negctrl_site248 (dsDNA)
DNA 1: ACTACGTGTCAAAAATATTAATTACAAATGAATAAA
DNA 2: TTTATTCATTTGTAATTAATATTTTTGACACGTAGT
B3: GTGCAC_negctrl_site359 (dsDNA)
DNA 1: ATATAAAAAAGGGAGGTAAATGAATGTGAAACCCAA
DNA 2: TTGGGTTTCACATTCATTTACCTCCCTTTTTTATAT
B4: GTGCAC_negctrl_site313 (dsDNA)
DNA 1: GATATAATTATATTATGGTGTTTTTGATAGATATTT
DNA 2: AAATATCTATCAAAAACACCATAATATAATTATATC
B5: GTGCAC_negctrl_site663 (dsDNA)
DNA 1: ATAAAAATAAATAAATTATATAAATGTAATATGAAA
DNA 2: TTTCATATTACATTTATATAATTTATTTATTTTTAT
B6: GTGCAC_negctrl_site64 (dsDNA)
DNA 1: TGCAAATTTAACAAAAAAAAAAAAAAAAAAAAAAAA
DNA 2: TTTTTTTTTTTTTTTTTTTTTTTTGTTAAATTTGCA
B7: GTGCAC_site10530 (dsDNA)
DNA 1: ATTAATAATCGAAAGGTGCACTTTGATTTGATAACA
DNA 2: TGTTATCAAATCAAAGTGCACCTTTCGATTATTAAT
B8: GTGCAC_site10010 (dsDNA)
DNA 1: AACCATTGGGAAAGGGTGCACATATATATATATATA
DNA 2: TATATATATATATATGTGCACCCTTTCCCAATGGTT
B9: GTGCAC_site10047 (dsDNA)
DNA 1: TATAATTTTTACTGGGTGCACTCGATATTTTAAATA
DNA 2: TATTTAAAATATCGAGTGCACCCAGTAAAAATTATA
B10: GTGCAC_site10477 (dsDNA)
DNA 1: AAATATTTCTGCAAGGTGCACTTTATAAATCTTTGA
DNA 2: TCAAAGATTTATAAAGTGCACCTTGCAGAAATATTT
B11: GTGCAC_site10453 (dsDNA)
DNA 1: TATAAGTAGATAAGGGTGCACAATATAAATATATAG
DNA 2: CTATATATTTATATTGTGCACCCTTATCTACTTATA
B12: GTGCAC_site9855 (dsDNA)
DNA 1: TTTATTTTCCAAAGGGTGCACATAGTTAAAACGATA
DNA 2: TATCGTTTTAACTATGTGCACCCTTTGGAAAATAAA
B13: GTGCAC_site10223 (dsDNA)
DNA 1: TTAATTATGGACAGGGTGCACATGAATAATAATACC
DNA 2: GGTATTATTATTCATGTGCACCCTGTCCATAATTAA
B14: GTGCAC_site10157 (dsDNA)
DNA 1: B12 DNA 1 with A28G
DNA 2: B12 DNA 2 with T9C
B15: GTGCAC_site9928 (dsDNA)
DNA 1: TTAACCGGTTTATGGGTGCACATTCTTCTTAAATAA
DNA 2: TTATTTAAGAAGAATGTGCACCCATAAACCGGTTAA
B16: GTGCAC_site9899 (dsDNA)
DNA 1: CTTGTGCTTTATAGGGTGCACATTTTGTTTTGGTAA
DNA 2: TTACCAAAACAAAATGTGCACCCTATAAAGCACAAG
B17: GTGCAC_site9987 (dsDNA)
DNA 1: ATATCTTATAATACGGTGCACTTGACATGAACAACT
DNA 2: AGTTGTTCATGTCAAGTGCACCGTATTATAAGATAT
B18: GTGCAC_site9617 (dsDNA)
DNA 1: TTTTTTTTTTTTTGTGTGCACCTTATTTTTTTGTAT
DNA 2: ATACAAAAAAATAAGGTGCACACAAAAAAAAAAAAA

Target: T1, SIP2 D1
Experiment: gcPBM; about 25 ug protein; PBS, 1% milk, 0.2 mg/ml BSA, salmon testes DNA, 0.03% Triton X-100
Settings: tags: N-terminal GST (pGEX-4T-1), kept; label: surface-attached array probe

Binder | binding signal
B1 | 6.91 ln median PBM intensity, better of two orientations
B2 | 6.92 ln median PBM intensity, better of two orientations
B3 | 6.92 ln median PBM intensity, better of two orientations
B4 | 6.92 ln median PBM intensity, better of two orientations
B5 | 6.92 ln median PBM intensity, better of two orientations
B6 | 6.92 ln median PBM intensity, better of two orientations
B7 | 12.2 ln median PBM intensity, better of two orientations
B8 | 12.2 ln median PBM intensity, better of two orientations
B9 | 12.2 ln median PBM intensity, better of two orientations
B10 | 12.1 ln median PBM intensity, better of two orientations
B11 | 12.1 ln median PBM intensity, better of two orientations
B12 | 11.9 ln median PBM intensity, better of two orientations
B13 | 11.9 ln median PBM intensity, better of two orientations
B14 | 11.9 ln median PBM intensity, better of two orientations
B15 | 11.9 ln median PBM intensity, better of two orientations
B16 | 11.9 ln median PBM intensity, better of two orientations
B17 | 11.9 ln median PBM intensity, better of two orientations
B18 | 11.8 ln median PBM intensity, better of two orientations
